Reference: patent US20150010920A1

Target: trypsin from bovine pancreas (Sigma, St. Louis) (bovine) (UniProt P00760)
Experiment: inhibition kinetics of trypsin (0.005 µM) digesting EGFP-T/C1 at 0-100 nM leupeptin, absorbance at 490 nm, fitted with Enzfitter

Sequence of trypsin from bovine pancreas (Sigma, St. Louis) (bovine) (P00760 24-246): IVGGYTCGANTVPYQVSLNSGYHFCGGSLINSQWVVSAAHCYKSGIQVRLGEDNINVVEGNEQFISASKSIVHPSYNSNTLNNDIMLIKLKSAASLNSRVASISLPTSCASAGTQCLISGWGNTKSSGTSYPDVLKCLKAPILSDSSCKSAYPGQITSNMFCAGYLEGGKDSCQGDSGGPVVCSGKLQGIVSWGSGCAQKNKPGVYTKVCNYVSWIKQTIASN

Ki: 31.1 nM
Substance: leupeptin (Sigma, St. Louis) (peptide)
